The results in this text go back to the supplement of paper PMC9112550, “Optimization of the antimicrobial peptide Bac7 by deep mutational scanning” (BMC Biology, 2022).

The subject of the data set is Escherichia coli TOP10. Briefly: shrunken log2 fold change of peptide-encoding DNA abundance (4.5 h post-induction vs induction); higher = less antimicrobial activity (less host growth inhibition). Particulars: time post-induction: 4.5 h; library: site-saturation at positions 5, 18, 19, 20.
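Further: peptides expressed intracellularly from a pBAD plasmid library in pooled LB shake-flask culture, induced with 0.3% L-arabinose, DNA abundance read by NGS, three biological replicates, DESeq2 with apeglm shrinkage.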

Turning to RRIRNRPPRLPRPRPRPNKWPRP, the “shrunken log2 fold change” value is -0.155. RRIRKRPPRLPRPRPRPFFCPRP: the “shrunken log2 fold change” value was found to be 0.232.

For the sequence RRIRIRPPRLPRPRPRPHHQPRP, the “shrunken log2 fold change” value is -0.41. As for RRIRCRPPRLPRPRPRPGYHPRP, the figure is -0.997. On to RRIRCRPPRLPRPRPRPLLMPRP, for which the “shrunken log2 fold change” value was -0.195. For the sequence RRIRPRPPRLPRPRPRPYFYPRP, the “shrunken log2 fold change” value was -0.787. For RRIRVRPPRLPRPRPRPIGTPRP the value was -0.0334; for RRIRLRPPRLPRPRPRPKPNPRP, 0.288. For RRIRKRPPRLPRPRPRPHNYPRP the value was -0.0761; for RRIRGRPPRLPRPRPRPHAIPRP, 0.46; for RRIRKRPPRLPRPRPRPDNPPRP, -0.0237.

For RRIRDRPPRLPRPRPRPDVWPRP, the “shrunken log2 fold change” value came to 0.511. Take RRIRQRPPRLPRPRPRPLLVPRP: the “shrunken log2 fold change” value is -0.295. As for RRIRVRPPRLPRPRPRPTALPRP, the figure is 0.388; as for RRIRRRPPRLPRPRPRPTHKPRP, 0.783. On to RRIRARPPRLPRPRPRPAYRPRP, for which the “shrunken log2 fold change” value is -0.086. As for RRIRERPPRLPRPRPRPHLKPRP, the figure is -0.268; as for RRIRFRPPRLPRPRPRPLGNPRP, -0.215.

RRIRARPPRLPRPRPRPSQMPRP: the “shrunken log2 fold change” value worked out at 0.0732. For RRIRRRPPRLPRPRPRPTAFPRP the value was 1.31. RRIRLRPPRLPRPRPRPDCKPRP: the “shrunken log2 fold change” value is 0.0852. Take RRIRTRPPRLPRPRPRPKRGPRP: the “shrunken log2 fold change” value was determined as 0.175. For RRIRPRPPRLPRPRPRPMVTPRP the value was -0.0789. As for RRIRERPPRLPRPRPRPGTPPRP, the figure is 0.0316. As for RRIRLRPPRLPRPRPRPNWGPRP, the “shrunken log2 fold change” value was found to be 0.00356.

For RRIRVRPPRLPRPRPRPCWFPRP, the “shrunken log2 fold change” value was -0.106. As for RRIRWRPPRLPRPRPRPAWLPRP, the figure is 0.61. For RRIRIRPPRLPRPRPRPIYDPRP the value was -0.471; for RRIRNRPPRLPRPRPRPEADPRP, 0.0747. Turning to RRIRPRPPRLPRPRPRPCCCPRP, the “shrunken log2 fold change” value is 0.368. For RRIRGRPPRLPRPRPRPMFFPRP the value was 0.336; for RRIRMRPPRLPRPRPRPCWYPRP, 0.092; for RRIRDRPPRLPRPRPRPMVEPRP, 0.465. For the sequence RRIRGRPPRLPRPRPRPVEKPRP, the “shrunken log2 fold change” value was 0.198.

Take RRIRNRPPRLPRPRPRPQCGPRP: the “shrunken log2 fold change” value was -0.241.

On to RRIRFRPPRLPRPRPRPMDRPRP, for which the “shrunken log2 fold change” value turned out to be 0.0616. For RRIRERPPRLPRPRPRPIGRPRP the value was 0.0419; for RRIRSRPPRLPRPRPRPPKYPRP, -0.164; for RRIRARPPRLPRPRPRPRVPPRP, 0.428. For RRIRLRPPRLPRPRPRPEQEPRP the value was -0.104; for RRIRTRPPRLPRPRPRPNNYPRP, -0.754; for RRIRSRPPRLPRPRPRPPDHPRP, 0.202. RRIRVRPPRLPRPRPRPGAGPRP: the “shrunken log2 fold change” value is 0.284. For RRIRKRPPRLPRPRPRPCFYPRP the value was -0.115; for RRIRCRPPRLPRPRPRPWYLPRP, -0.0282; for RRIRVRPPRLPRPRPRPSDTPRP, -0.54. As for RRIRGRPPRLPRPRPRPQSAPRP, the figure is 0.629.

Consider RRIRPRPPRLPRPRPRPQTYPRP, for which the “shrunken log2 fold change” value was -0.256. As for RRIRHRPPRLPRPRPRPNTGPRP, the figure is 0.121; as for RRIRARPPRLPRPRPRPWCWPRP, 0.583; as for RRIRPRPPRLPRPRPRPIDHPRP, 0.0529. Take RRIRTRPPRLPRPRPRPTTEPRP: the “shrunken log2 fold change” value was -0.16.

With RRIRRRPPRLPRPRPRPDQKPRP, the “shrunken log2 fold change” value was -0.0181.

With RRIRPRPPRLPRPRPRPLNRPRP, the “shrunken log2 fold change” value was -0.0518. Turning to RRIRNRPPRLPRPRPRPGFGPRP, the “shrunken log2 fold change” value was 0.25.

Consider RRIRARPPRLPRPRPRPCNYPRP, for which the “shrunken log2 fold change” value was -0.178.

RRIRQRPPRLPRPRPRPIDQPRP: the “shrunken log2 fold change” value was -0.0135. As for RRIRPRPPRLPRPRPRPQHGPRP, the figure is -0.189; as for RRIRKRPPRLPRPRPRPRCCPRP, 0.491. As for RRIRCRPPRLPRPRPRPEWHPRP, the figure is -0.0462; as for RRIRSRPPRLPRPRPRPLSLPRP, 0.0119; as for RRIRQRPPRLPRPRPRPHCSPRP, -0.104. For RRIRNRPPRLPRPRPRPIYLPRP the value was -0.376; for RRIRIRPPRLPRPRPRPDYTPRP, -0.00167; for RRIRWRPPRLPRPRPRPRYEPRP, 0.0756. For RRIRVRPPRLPRPRPRPYQNPRP, the “shrunken log2 fold change” value was -0.141.

With RRIRKRPPRLPRPRPRPQVLPRP, the “shrunken log2 fold change” value was -0.165. As for RRIRFRPPRLPRPRPRPTWSPRP, the figure is 0.188; as for RRIRNRPPRLPRPRPRPKSPPRP, 0.205; as for RRIRWRPPRLPRPRPRPTPDPRP, 0.746. For RRIRWRPPRLPRPRPRPGSDPRP the value was 0.661. For RRIRSRPPRLPRPRPRPCTKPRP the value was -0.581; for RRIRHRPPRLPRPRPRPKMLPRP, -0.353. On to RRIRVRPPRLPRPRPRPQESPRP, for which the “shrunken log2 fold change” value was -0.0491. For RRIRGRPPRLPRPRPRPQNSPRP the value was -0.506. For RRIRSRPPRLPRPRPRPVALPRP the value was -0.0772. For RRIRKRPPRLPRPRPRPYMSPRP the value was 0.0659. As for RRIRARPPRLPRPRPRPANHPRP, the “shrunken log2 fold change” value is -0.129. For RRIRARPPRLPRPRPRPSYKPRP the value was -0.305. As to RRIRERPPRLPRPRPRPMSNPRP, the “shrunken log2 fold change” value is -0.16.

RRIRKRPPRLPRPRPRPNMPPRP: the “shrunken log2 fold change” value is 0.145.

As for RRIRMRPPRLPRPRPRPSCKPRP, the “shrunken log2 fold change” value was determined as 0.0347. For RRIRMRPPRLPRPRPRPPSCPRP the value was 0.932; for RRIRHRPPRLPRPRPRPQQMPRP, 0.00835.

Consider RRIRCRPPRLPRPRPRPLIIPRP, for which the “shrunken log2 fold change” value is -1.07. In the case of RRIRPRPPRLPRPRPRPNQPPRP, the “shrunken log2 fold change” value turned out to be 0.0225.

In the case of RRIRNRPPRLPRPRPRPADRPRP, the “shrunken log2 fold change” value was -0.00994. For RRIRCRPPRLPRPRPRPIMNPRP the value was -0.911. As for RRIRLRPPRLPRPRPRPLQNPRP, the figure is 0.166; as for RRIRPRPPRLPRPRPRPTLPPRP, 0.309. As for RRIRVRPPRLPRPRPRPHQLPRP, the figure is -0.243; as for RRIRRRPPRLPRPRPRPYWDPRP, -0.247. Take RRIRARPPRLPRPRPRPSMLPRP: the “shrunken log2 fold change” value was determined as 0.0741. Take RRIRNRPPRLPRPRPRPRGHPRP: the “shrunken log2 fold change” value turned out to be 0.347. For RRIRRRPPRLPRPRPRPEVWPRP the value was 1.74. For RRIRGRPPRLPRPRPRPSNHPRP the value was -0.145; for RRIRTRPPRLPRPRPRPKATPRP, -0.146; for RRIRFRPPRLPRPRPRPKSEPRP, -0.213. For RRIRQRPPRLPRPRPRPSCRPRP, the “shrunken log2 fold change” value is -0.28. For RRIRNRPPRLPRPRPRPTHKPRP the value was 0.322. For RRIRMRPPRLPRPRPRPKCWPRP the value was 1; for RRIRLRPPRLPRPRPRPFAKPRP, -0.118; for RRIRYRPPRLPRPRPRPPCRPRP, -0.211. As for RRIRHRPPRLPRPRPRPVDDPRP, the figure is -0.221. Consider RRIRPRPPRLPRPRPRPRDGPRP, for which the “shrunken log2 fold change” value amounted to 0.694. As for RRIRIRPPRLPRPRPRPMSEPRP, the figure is -0.00782.

Take RRIRERPPRLPRPRPRPHITPRP: the “shrunken log2 fold change” value is -0.99. As for RRIRFRPPRLPRPRPRPDDRPRP, the figure is 0.00835; as for RRIRGRPPRLPRPRPRPERQPRP, 0.101. As for RRIRFRPPRLPRPRPRPMCRPRP, the figure is -0.218. As for RRIRFRPPRLPRPRPRPIARPRP, the figure is 0.00909; as for RRIRQRPPRLPRPRPRPGNFPRP, 0.0262; as for RRIRWRPPRLPRPRPRPTQAPRP, 1.45. As to RRIRHRPPRLPRPRPRPIKWPRP, the “shrunken log2 fold change” value turned out to be 0.126. For RRIRFRPPRLPRPRPRPPNFPRP the value was -0.22; for RRIRNRPPRLPRPRPRPTHGPRP, -0.0213. On to RRIRPRPPRLPRPRPRPWDKPRP, for which the “shrunken log2 fold change” value was -0.629.

Consider RRIRCRPPRLPRPRPRPCAGPRP, for which the “shrunken log2 fold change” value turned out to be 0.039.

In the case of RRIRMRPPRLPRPRPRPDMWPRP, the “shrunken log2 fold change” value turned out to be 0.805.

In the case of RRIRTRPPRLPRPRPRPHPAPRP, the “shrunken log2 fold change” value turned out to be 0.201. As for RRIRSRPPRLPRPRPRPPLCPRP, the figure is 0.357; as for RRIRGRPPRLPRPRPRPMPVPRP, 0.447. For RRIRCRPPRLPRPRPRPTMQPRP, the “shrunken log2 fold change” value is -0.0203. For RRIRLRPPRLPRPRPRPIRYPRP the value was -0.272. On to RRIRLRPPRLPRPRPRPAWNPRP, for which the “shrunken log2 fold change” value is 0.133.
